Laboratory results taken from PMC8521305.

Target: glycophorin A (GlyA) TMH
Assay: SEC

stoichiometry N (helices per nanodisc): 2
Substance: glycophorin A (GlyA) TMH (domain or fragment)
